Residue numbers refer to the chain shown, from its start. Where two headings read alike, the source gives them in different places.

Experiment [1] concerns the target T1, WIV1 Spike on pseudovirus (WIV1 (bat SARS-like coronavirus)). The experiment is described as follows: cell-based or functional assay.
Experiment [2] has as its target T2, SARS-CoV-1 Spike on pseudovirus (SARS-CoV-1, UniProt P59594 14-1255). The experiment is described as follows: cell-based or functional assay.
Experiment [3] has as its target T1, WIV1 Spike on pseudovirus. The experiment is described as follows: cell-based or functional assay. This is another data set of the same source.
Experiment [4] concerns the target T2, SARS-CoV-1 Spike on pseudovirus. Kind of experiment: cell-based or functional assay. The source holds these as a separate data set.
The target of experiment [5] is T1, WIV1 Spike on pseudovirus. Kind of experiment: cell-based or functional assay. This is another data set of the same source.
Experiment [6] concerns the target T2, SARS-CoV-1 Spike on pseudovirus. Kind of experiment: cell-based or functional assay. The source holds these as a separate data set.
Experiment [7] concerns the target T3, MERS spike trimer (recombinant, negative control) (MERS, UniProt K9N5Q8 18-1296).
T3 sequence: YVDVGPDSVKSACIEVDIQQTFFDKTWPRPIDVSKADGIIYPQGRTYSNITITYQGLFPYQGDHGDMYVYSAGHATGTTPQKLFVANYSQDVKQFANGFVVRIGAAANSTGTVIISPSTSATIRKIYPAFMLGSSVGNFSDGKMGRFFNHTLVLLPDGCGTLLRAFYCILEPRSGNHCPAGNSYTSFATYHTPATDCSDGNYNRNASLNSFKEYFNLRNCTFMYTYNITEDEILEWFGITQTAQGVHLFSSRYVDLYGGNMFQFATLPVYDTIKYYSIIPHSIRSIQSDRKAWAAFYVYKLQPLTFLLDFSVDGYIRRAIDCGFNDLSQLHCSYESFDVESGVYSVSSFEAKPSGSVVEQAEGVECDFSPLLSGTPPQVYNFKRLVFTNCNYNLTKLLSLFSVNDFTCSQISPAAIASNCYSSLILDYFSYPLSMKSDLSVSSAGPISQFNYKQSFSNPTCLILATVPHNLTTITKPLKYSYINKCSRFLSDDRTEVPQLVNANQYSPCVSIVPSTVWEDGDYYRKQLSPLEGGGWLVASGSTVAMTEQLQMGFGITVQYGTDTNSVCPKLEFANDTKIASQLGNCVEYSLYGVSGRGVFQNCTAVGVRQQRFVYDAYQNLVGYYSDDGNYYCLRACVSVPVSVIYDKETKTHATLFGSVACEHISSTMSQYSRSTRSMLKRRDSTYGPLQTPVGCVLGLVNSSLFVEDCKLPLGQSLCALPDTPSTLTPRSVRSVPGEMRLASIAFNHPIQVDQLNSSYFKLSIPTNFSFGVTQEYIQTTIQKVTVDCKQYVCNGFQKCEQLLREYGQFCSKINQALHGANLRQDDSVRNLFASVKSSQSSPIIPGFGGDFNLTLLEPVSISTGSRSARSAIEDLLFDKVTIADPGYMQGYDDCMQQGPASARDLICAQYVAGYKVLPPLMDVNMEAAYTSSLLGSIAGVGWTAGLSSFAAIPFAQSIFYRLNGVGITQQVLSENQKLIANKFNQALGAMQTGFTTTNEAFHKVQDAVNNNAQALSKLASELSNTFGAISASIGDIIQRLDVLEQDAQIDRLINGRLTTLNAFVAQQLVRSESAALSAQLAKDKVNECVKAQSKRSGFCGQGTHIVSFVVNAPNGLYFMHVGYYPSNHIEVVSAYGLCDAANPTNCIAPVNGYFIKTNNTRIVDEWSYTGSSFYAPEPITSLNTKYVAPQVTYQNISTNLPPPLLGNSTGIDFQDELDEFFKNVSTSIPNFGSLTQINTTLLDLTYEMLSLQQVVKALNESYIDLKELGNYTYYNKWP
Kind of experiment: SPR, Fab over anti-His-captured trimer, 25 C. On the technique in general: Surface plasmon resonance follows binding to a sensor surface in real time, without labels.

For experiment [8], the target named is spike of SARS-CoV-2 Eng20 (WT) (SARS-CoV-2, UniProt P0DTC2 14-1273). Kind of experiment: cell-based or functional assay.

B1: Reference Antibody (antibody, V domains shown)
VH: EVQLVESGAEVKKPGESLKISCKGSGYTFTRYWIGWVRQMPGKGLEWMGIIYPGDSDTRYSPSFQGHVTISADKSISTAYLQWNSLKASDTAMYYCARLPQYCSNGVCQRWFDPWGQGTLVTVSS
VL: EIVLTQSPSSVSASVGDRVTITCRASQGISSWLAWYQQKPGKAPKLLIYAASSLQSGVPSRFSGSGSGTDFTLTISSLQPEDFATYYCQQGNSFPYTFGQGTNLEIK
With B1, the “IC50, pseudovirus neutralization” value turned out to be 0.0196 µg/mL in experiment [1], 0.0352 µg/mL in experiment [2], 0.473 µg/mL in experiment [5] and 0.244 µg/mL in experiment [6]. In addition, the “% neutralization at 4.5 µg/ml, pseudovirus” value was 97.6% in experiment [3] and 94.3% in experiment [4].

B2: AB-1 Fab (Fab, V domains shown)
VH: B1 VH with T58V, N105K, Q109Y
VL: B1 VL with N92H
Turning to B2, in experiment [7], the binding result is “no binding (tested: 600 nM highest Fab concentration)”.

B3: Reference Antibody Fab (Fab, V domains shown)
VH: B1 VH
VL: B1 VL
Turning to B3, in experiment [7], the binding result is given as “no binding (tested: 600 nM highest Fab concentration)”.

B4: bebtelovimab (antibody, V domains shown)
VH: QITLKESGPTLVKPTQTLTLTCTFSGFSLSISGVGVGWLRQPPGKALEWLALIYWDDDKRYSPSLKSRLTISKDTSKNQVVLKMTNIDPVDTATYYCAHHSISTIFDHWGQGTLVTVSS
VL: QSALTQPASVSGSPGQSITISCTATSSDVGDYNYVSWYQQHPGKAPKLMIFEVSDRPSGISNRFSGSKSGNTASLTISGLQAEDEADYYCSSYTTSSAVFGGGTKLTVLG
On to B4, for which the “EC50, live virus neutralization” value in experiment [8] turned out to be 0.0016 µg/mL.

The record behind these values is patent US20230357367A1 (GENERATE BIOMEDICINES, published 2023).
